Results: FireProtDB (doi:10.1093/protein/8.11.1153)

B1: Alpha-lactalbumin, P00712 (parent)
chain: MMSFVSLLLVGILFHATQAEQLTKCEVFQKLKDLKDYGGVSLPEWVCTAFHTSGYDTQAIVQNNDSTEYGLFQINNKIWCKDDQNPHSRNICNISCDKFLDDDLTDDIVCAKKILDKVGINYWLAHKALCSEKLDQWLCEKL

Variants of: B1
Conditions: Capra hircus; pH 2; 20 °C; Urea; CD; NaCl-HCl 100 mM; structure 1HFY; whole UniProt chain shown

Variant | ddG of mutation (higher = less stable) [kcal/mol] | denaturant m value [kcal/mol/M] | denaturant midpoint (higher = more stable) [M] | unfolding free energy [kcal/mol]
MMSFVSLLLVGILFHATQAEQLTKCEVFQKLKDLKDYGGVSLPEWVCIAFHTSGYDTQAIVQNNDSTEYGLFQINNKIWCKDDQNPHSRNICNISCDKFLDDDLTDDIVCAKKILDKVGINYWLAHKALCSEKLDQWLCEKL [T48I] | -0.07 | 0.31 | 2.5 | 0.77
MMSFVSLLLVGILFHATQAEQLTKCEVFQKLKDLKDYGGVSLPEWVCTIFHTSGYDTQAIVQNNDSTEYGLFQINNKIWCKDDQNPHSRNICNISCDKFLDDDLTDDIVCAKKILDKVGINYWLAHKALCSEKLDQWLCEKL [A49I] | -0.3 | 0.33 | 3 | 1
MMSFVSLLLVGILFHATQAEQLTKCEVFQKLKDLKDYGGVSLPEWVCTTFHTSGYDTQAIVQNNDSTEYGLFQINNKIWCKDDQNPHSRNICNISCDKFLDDDLTDDIVCAKKILDKVGINYWLAHKALCSEKLDQWLCEKL [A49T] | 0.14 | 0.29 | 1.9 | 0.56
MMSFVSLLLVGILFHATQAEQLTKCEVFQKLKDLKDYGGVSLPEWVCTAFHISGYDTQAIVQNNDSTEYGLFQINNKIWCKDDQNPHSRNICNISCDKFLDDDLTDDIVCAKKILDKVGINYWLAHKALCSEKLDQWLCEKL [T52I] | -0.32 | 0.39 | 2.6 | 1.02
